What all share (settings): remark: other sources report otherwise
Assay [1] has as its target T1, human IGF-I receptor of human tumor cells (MCF-7, NCI-H838, SaOS-2 and other lines) (human), P08069. Briefly: displacement of pre-bound biotinylated IGF-I from MCF-7 cells by EM164 (10-100 µg/mL) at 4° C., 2 h; capture ELISA.
Assay [2] deals with T1, human IGF-I receptor of human tumor …. Briefly: displacement of pre-bound biotinylated IGF-I from MCF-7 cells by EM164 (10-100 µg/mL) at 37° C., 30 min; capture ELISA.
For assay [3], the target named is T2, purified full-length human IGF-I receptor (affinity purified; directly coated or biotinylated and captured on streptavidin) (human), P08069. Put plainly: ELISA titration on biotinylated human IGF-I receptor captured on streptavidin; non-linear regression for one-site binding. For orientation: In an ELISA, binding on a coated surface is turned into a signal by an enzyme label.

The target of assay [4] is T2, purified full-length human IGF-I …. Briefly: ELISA, hybridoma supernatant on plate-coated purified human IGF-I receptor, anti-mouse IgG Fc-HRP.
The target is the same in assay [5]. Briefly: ELISA titration on human IGF-I receptor, similar to that of the whole antibody.

B1: murine anti-IGF-I receptor antibody EM164 (antibody, V domains shown)
VH: QVQLQQSGAELVKPGASVKLSCKASGYTFTSYWMHWVKQRPGQGLEWIGEINPSNGRTNYNEKFKRKATLTVDKSSSTAYMQLSSLTSEDSAVYYFARGRPDYYGSSKWYFDVWGAGTTVTVS
VL: DVLMTQTPLSLPVSLGDQASISCRSSQSIVHSNVNTYLEWYLQKPGQSPKLLIYKVSNRFSGVPDRFSGSGSGTDFTLRISRVEAEDLGIYYCFQGSHVPPTFGGGTKLEIKR
Take B1: the % displacement of pre-bound biotinylated IGF-I worked out at 50% in assay [1] and 90% in assay [2]. In assay [3], this molecule returned a Kd of 100 pM. Besides, the absorbance units (ELISA, 405 nm) (absorbance units) in assay [4] was 1.2.

B2: Fab fragment of EM164 antibody (Fab, V domains shown)
VH: B1 VH
VL: B1 VL
modifications: here or on the partner: biotinylated with PEO-maleimide-biotin reagent in the captured format
Molecule B2 gave a Kd in assay [5] of 300 pM.

Usually Kd stands for the equilibrium constant for the complex coming apart. The low end stands for tighter binding, the high end for weaker binding.

These data come from patent publication US20050186203A1.
